System: free histones (mixture of H1, H3, H2B, H2A and H4; Boehringer Mannheim)

Chain of GST-EZH2(382-747) (chain, as listed by the source): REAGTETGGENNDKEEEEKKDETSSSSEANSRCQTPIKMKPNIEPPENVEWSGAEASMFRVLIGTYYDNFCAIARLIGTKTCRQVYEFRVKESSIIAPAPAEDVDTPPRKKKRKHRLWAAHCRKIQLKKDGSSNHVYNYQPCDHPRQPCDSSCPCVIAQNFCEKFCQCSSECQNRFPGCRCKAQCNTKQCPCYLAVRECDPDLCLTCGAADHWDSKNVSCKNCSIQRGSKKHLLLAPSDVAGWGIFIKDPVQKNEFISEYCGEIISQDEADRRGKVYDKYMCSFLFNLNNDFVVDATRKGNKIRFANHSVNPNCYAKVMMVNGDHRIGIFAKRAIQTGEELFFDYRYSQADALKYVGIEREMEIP

Row | Substance | HMTase activity
1 | GST-EZH2(382-747) | had undetectable HMTase activity towards free histones
2 | GST-HRX(3643-3969) | had undetectable HMTase activity towards free histones
3 | GST-Suv39h2(157-477) | The SU(VAR)3-9 family members assayed, SUV39H1, Suv39h2 and CLR4, displayed HMTase activity.

— patent publication US20020039776
